In the domain aggregation screens of Martell et al. (2025):

Assay: soluble fraction after stress (log2 fold change); higher = more stays soluble; pooled small domains, quantitative proteomics
Conditions: stress: pH 4
Outline: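 Values are log2 fold changes, and higher ones mean more of the domain stayed soluble. Each fold change reflects the soluble amount of a domain after acid stress and is taken as a measure of aggregation propensity. The stress was pH 4, applied to pooled custom libraries of small protein domains analysed by high-throughput quantitative proteomics.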

| Sequence | soluble fraction (log2) |
| --- | --- |
| HMEEMADILKTRIDTLDLSTRTLNALTGANIRTVGGIARKKKEDLLELAGMGEKGIQEIKKVLGGFGITL | 0.15 |
| HMEEPEYELLRQAVLALPEKYRLPIHLYYYEEYSVREIAEILQRKESAVQTQLQRGREKIRRSLTEKGVS | -0.941 |
| HMEEPLIISIDSNGAVYLEVDSFKDQSIEMSSLREIIEKIILANPDIQVVVRGDSEVKYEKVMDLMSILQS | -1.95 |
| HMEEQGLPLVIISDGKVLAQNLTLRSLDRAWLQDQLTQHGHSKPEQVFLLTVDERGAVYYVPKE | -1.86 |
| HMEEQQIQLIQMKMEKDHKYVGKKISELRIKNMLIVLIKRGDEDIIPRAEVKIKEGDILVLSAQSYEG | -0.29 |
| HMEETAFEKLSPLQKLRALGKPLTMINMRDGSQIAGSVQRSDDKFLYLDTGDGIAKLPVEEILRRTPM | 0.13 |
| HMEETIVFGQQKAINALSSDAGLSSNELDSYLKKRYKRPLYQLSKSEGAELIQGFQDGSLSKASIMDYVS | 0.346 |
| HMEEVIEVEGKITAVLPSTMFRAELENGHQVLAHISGKLRKHFIKITVGDIVKMEMSTQDLQKARIV | -0.831 |
| HMEEVRFPLKKEILLWALKEAQVDEDEVFRKFTNLEKWINGEKHPTFKQIESLANYLKIPFGYMFLEKPPI | -1.47 |
| HMEEVVIPDLAGLTEEEATKVLMAKELKLKVSGSQHSDIEKGLIISQDPPAGEKGAKNSQVAVVTSSG | -0.000599 |
| HMEFDFGAILSGNGGSELYSGYSAEQKAALVEAAKADGMDVEFGADGSTTFKDKDGSEVVQKADGTWTV | -0.0653 |
| HMEFDVELTSFEEAKKLKVIKEVKDVTGLSLGEAKDLVMGAPKAIKTGVSKEEAEAIKTQIEAAGAVVTI | -0.699 |
| HMEFDYIVKVPDVRNKKIEDAGKILIDLGLKYTTESDYITQDLKVIDQFPLPGTEVSKGSIIDIYLEEDFK | -0.446 |
| HMEFEKYKYHYIFDDVLGLRIVWDRGKEHFSYFVNEELAEKSRKSDKDALEVMFYLEHKRWPEEGELENY | -1.07 |
| HMEFEYTVVVPETRGKTIGEAGRILLDLELKYTSESMNIREDSKVIDQFPSPGTEVSKGSIIDLYLDE | -1.91 |
| HMEFQISLAAARVNANMTQEDTARAMKVSKTTIVNWEKGKVIPGIPEVEMMSRLYGIPQDYIFLP | -0.796 |
| HMEFSYLEEIGHEKGDLIKGLQLIQQKEGYVSDDAVRAVAENFGMSPAEVEGVLTFYAQFKR | -1 |
| HMEGFKSVYFLTTPSGAEISDRSVGDIISKTPSLVSAQEGTEFEFNLKGYQPSFYMINKRSPDRVFVELIP | -0.575 |
| HMEGLEKDDGGYYFEKDNGERARNEWVYVEYEGKGYWYYMTDYGYPLRSAITPDGYKVNSNGHWIDEGN | -1.12 |
| HMEGLESVVPDLRGKSLKSAAIAAGLSGFALSPEGSGIVYKQSPAPGGRYLKGTLIAVWLRT | 0.22 |
| HMEGMQATVTQITDEGITVRYVMNGQMVTRTLTSDEVAFVNRGQAVSDLAGAYRVGQTVWIY | -0.179 |
| HMEGNAFASTGDPEADILDITAVHPMRRDAVEELLARSGAEWSLVEGMLRDGKITMAPWEGEEFFIRS | -1.35 |
| HMEGNWGLWAKVPNRFAALTTDKDSALRRFKSKEDGEAWMASHGLKPERFDVLEIPADYKPA | -0.0509 |
| HMEGRHFRILYILLNNERVTAPELAEEFGVSVRTIYRDIDTMSAAGIPIYMQGGRKGGIYLLEGY | -1.61 |
| HMEGSRASMDGQVPGKTSYLEWLARQPAQRQDQVLGAERGRLFRAGEIDLADMFTDKGEWISLERLKQLS | -0.284 |

| Sequence | soluble fraction (log2) |
| --- | --- |
| HMEGVSNLIVSVTRVKVTVDLSQAKVYLSIFPSEQAAFYLNALQQNRFQLKHDLSQLLKNQLRRIPTLQF | -0.0019 |
| HMEHDYGLSGREREVLELMVQGLVKKEIADRLALSYHTVDNHLRSIYAKLQVHTRGGAVAKALSEHLVPP | -0.483 |
| HMEHGQWLSEAQGASLAADWLARRRGVLPLNARRHLSGLSDQIARQIEGGLSREAGLYTAHEMMESLDP | -0.217 |
| HMEHNDPEVERTMFQGLEALKLQLFEKAFGHFSLLIKLAPDYAEAWNKRATVLYLMGRFKESESDVMRTLE | -0.0178 |
| HMEHQLLHMEKTIFEEIADDYPQLNHTKIRNVLAAFLFTNDDVFKRIADLSGGERGRVSLAKLMLSDA | -0.816 |
| HMEHTPYLTEREADVVRLLVSGLDTAQIAQRLGIKTATVTAHKKHIFLKIGVRNTTQLVAWALIR | -0.557 |
| HMEIELHNLALNIKEFRKKNKLSQAELAEKLGVARTTIGYYERAEVEPNIYTLVQLSKLMNRSIDSLLGL | -0.0684 |
| HMEIFYGDDRVYTVSLHGQNNFPFRKKTSDFDYGFEDGTGDEEYLRVLDVTLSRLENEQFDLLFFQAGV | -0.842 |
| HMEIFYSARAWAKLNDLVATRTYLQHLGAIAGRIGRSEGLSPDRIPDGRDGAVNGWPLWVWDRAYAEVS | -0.245 |
| HMEIGLIRVDSRLIHGQVITKWLNYSKANVIVVVDDELSKDSFMSEIYKASAPNGIIVEILSIDDFMKNT | -0.142 |
| HMEIHIGSLIKEKMEERGLSVSDFAHALHYERTNIYKIFKRSSIDVDLLLRISEVLAYDFLREVYL | -1.9 |
| HMEINKLIELIGGYKALSEVLNVSKSAISNYKKRGSLPSYAIPIIVKELKSKGISIDLSEFT | -0.0727 |
| HMEISAIIGNNLQQLRKEQGLSLDQLALKTGVSKAVLSQLENGKANPTINTIWKIATALHVTYSALLEPP | -0.347 |
| HMEISEILNPPLVTAMAERYPEVDVSYYRDKYILYYESREHKITDHRRNFEKWLLVESQKEEN | -1.66 |
| HMEISTENESFSNGLLEHPHYTRPPVWEDLKIPAVLMSGHHGKVAEWRKQQSEALTQERRPDLWEAFG | -0.0776 |
| HMEITSSNELKKMISNLINSENKNNPISDSNIVEKLKENDFLVARRTVAKYRKLLGIKNVNQRKE | 0.25 |
| HMEIYELTDQEQRVLEFIGEGMTNREIAKNMFLAEKTVKNYVSSLLRKLGLERRTQAAAMAVRLSV | -0.988 |
| HMEKAYVWTDTRTFDVQNYIGKKKSEVKNDQYGFEFLGEGDYVIDQLPRVGEQIEEGQKVKIMLGNQQEI | 0.117 |
| HMEKDKGTILKEARIKKGLTQEQLANNINYTRQYISKWENNISLPKDIQTLKKISNLLSIPLKELLPEDYL | 0.0442 |
| HMEKEFLFNGGKVVMNYEADRIQIMHDTKPGQDVITLMKKNGFKWSPFNKAWQRQITANAIYTTKHLINQ | -0.6 |
| HMEKGIVSNKTDKGYGFIRSSTGESIFVHINNVGKEAYEQLAKGSRVLFDYEVTDRGKRATKVMLEPSES | -0.401 |
| HMEKGLQYRRTDRAIMNAFIKLVNQGSFEKLTVQEILDEALVSRNTFYAHYRDIYDLMDALSN | -1.37 |
| HMEKIDEDIMDVLKKKAEVSGISLGVLKSIYEKAVKQYKLGHEIGQVKEQYAMQKVNTHLLENK | 0.169 |
| HMEKIDYLSIGHRLRAYRIASSLKAEDVAESLGISRAAVYRLEKGEIVKIETLDNLARLLNTSLSSLLG | -1.3 |
| HMEKIKNLTVTEFNLIANKNPSGSYDRITREALLHIIHKLESSYEAHTDLERKLFYKFRKAKFNAL | -0.715 |

| Sequence | soluble fraction (log2) |
| --- | --- |
| HMEKIYLISDAAKQVNVEAHVLRYWEEELDIPAKRNELGHRYYTQEDIETFRKVKELKAQGIQLKGIKNIL | -1.07 |
| HMEKLLTTRQSQIFELAKRKGYWNIPREISITQLAQLTGSSKSTISVMLHAIESKIVDTFYDEI | -0.216 |
| HMEKLNERLLYLRKNANLTQQQLADKLHISNKTISQWETGRTLPDIVMLVRLAEIYDMKLDELLNQ | 0.074 |
| HMEKMLENIDLKAAVEALPEREKKVILLRYYRGMTQDAAAKVMKVSQVQISRIEKRAIEILREKL | -0.226 |
| HMEKNKERIAFLKKRLEMYYEAEEKILQGQSYTIGSRTLTRTSLANVQSKIKELESEISALETRGN | -0.653 |
| HMEKRIIMLEELKKQVYEANMELPRRGLITYTWGNVSGIDRESGNFVIKPSGVDYDKLKPEDMVVMDL | 0.0555 |
| HMEKRRQEIVELVKRESEISFAELKQHFPEVSEVTLRKDLKYLDSTLQIIRIHGGAKSLPAAI | -0.582 |
| HMEKTTTLFDETTNPGIIYIGKAMPTGSAISEAAAVWAIKTIDTTTDTEIKWADGVTTYTKVWNNRASYSY | -1.35 |
| HMEKVDAISQSILDVLKKNNGYLAVTDKSDPDEIYGLFQISKKTFKKAIGSLYRDRLISIEEEGIRLR | -0.237 |
| HMEKVTAPMPGVINSIVKNVGDTVKRGDVVLILEAMKMENEIVAPKEGKIASINVAKGASVNAGDVLFSI | 0.197 |
| HMEKVTPEMIAEYNALAKKYNSNPEVVFKKKEIQRLKYIYSLMSEKQKETAEVFPNIPPPPPT | -0.599 |
| HMEKYNIIVDNEDNFRLDKIIALNMKDLSRTMIQEMINRGLVSVNGKITKASYKTKLNDQIEIMIED | -0.171 |
| HMELAALKILNSPIGKIAIGTSENGLVKLDILTSGQTRAEFSDLPKAHKLALDAADQLAAYF | 0.113 |
| HMELADNFAKLILTARESKGWTQAQLGQRMAETINVIKSAESGKPPADSVIRKFEMILGIELM | -0.121 |
| HMELDFLRLQIITGIHSGRLSNNEILMMYDTYSQKGGNSYVSRIVNDYVDENNIKEEGKRNARK | -0.636 |
| HMELDREALSDGLRRLSQLLAEDDIESRTLFRELAPGLKEQLGDDAVEKLAGHISRYEFEQAGALLATSG | -0.61 |
| HMELIELTVTEEFEMARLDQFLAGHLTQSRTYIQKLIKAGQITINGNLITRVKVPVHYGDFILINIPDPE | -1.6 |
| HMELKFIGEAVNNPKRPLIAILGGAKVSDKIGVIENLLTKADKILIGGAMMFTFLKAEGKNIGTSLVED | -0.0167 |
| HMELLEVSVIIREADSTGWSAARQGMEQAAADLGAELRFLTLSQSNSAEEQRSLLAREVEGGADAVVLV | ≥ 0.43 |
| HMELNEMEAWSLVSKALRNGTYGAVEEFSRLPPTVQEAVGNPDNLRNWATSDYKAIETVIQSNFIKTY | -0.429 |
| HMELNILELKSKERKISLEDHLYIKSFNFDNETNEYFYRLAFNSSKDLKNFKATINNDKTISIINFEI | -2.14 |
| HMELPVNSIRVPDVVGLSLREAMQAMTDAGVPWQSVQAKGVGFVSRQSPEAGTVTQLRRVRLELKLF | -0.00108 |
| HMELSPVDLGERLKIARETANFTQDAAAKAVGIARTTLVSIEKGQRTARLDEIQALSRFYGVSANALLR | 0.0374 |
| HMELTDRQKQIIEIVKKQQPISGEKIASILGFARATLRPDFSLLTMSGILQAKPKVGYLINEE | 0.158 |
| HMELVEVGDLTGLTVEQAENVLKNSNISISIDKYDESDKYEKDQIISQNPQNKKVKKGTAIHVVLSNGP | -0.181 |
